Paper PMC9902482 (2023)
“And” between values parts separate entries of the source, which are not always exact repeats. Equal entries are not always repeated.

T1: Lec domain of ADGRL3 (human, UniProt Q9HAR2 24-126, biotin on the Avi-tag (BirA) in the flow cytometry experiments)
T1 chain: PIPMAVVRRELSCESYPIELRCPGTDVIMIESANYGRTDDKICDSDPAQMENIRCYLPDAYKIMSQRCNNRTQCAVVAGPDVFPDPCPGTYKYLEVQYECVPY

B1: full-length extracellular region (ECR) of ADGRL3 (domain or fragment)
chain 1: FSRAPIPMAVVRRELSCESYPIELRCPGTDVIMIESANYGRTDDKICDSDPAQMENIRCYLPDAYKIMSQRCNNRTQCAVVAGPDVFPDPCPGTYKYLEVQYECVPYKVEQKVFLCPGLLKGVYQSEHLFESDHQSGAWCKDPLQASDKIYYMPWTPYRTDTLTEYSSKDDFIAGRPTTTYKLPHRVDGTGFVVYDGALFFNKERTRNIVKFDLRTRIKSGEAIIANANYHDTSPYRWGGKSDIDLAVDENGLWVIYATEQNNGKIVISQLNPYTLRIEGTWDTAYDKRSASNAFMICGILYVVKSVYEDDDNEATGNKIDYIYNTDQSKDSLVDVPFPNSYQYIAAVDYNPRDNLLYVWNNYHVVKYSLDFGPLDSRSGQAHHGQVSYISPPIHLDSELERPSVKDISTTGPLGMGSTTTSTTLRTTTLSPGRSTTPSVSGRRNRSTSTPSPAVEVLDDMTTHLPSASSQIPALEESCEAVEAREIMWFKTRQGQIAKQPCPAGTIGVSTYLCLAPDGIWDPQGPDLSNCSSPWVNHITQKLKSGETAANIARELAEQTRNHLNAGDITYSVRAMDQLVGLLDVQLRNLTPGGKDSAARSLNKAMVETVNNLLQPQALNAWRDLTTSDQLRAATMLLHTVEESAFVLADNLLKTDIVRENTDNIKLEVARLSTEGNLEDLKFPENMGHGSTIQLSANTLKQNGRNGEIRVAFVLYNNLGPYLSTENASMKLGTEALSTNHSVIVNSPVITAAINKEFSNKVYLADPVVFTVKHIKQSEENFNPNCSFWSYSKRTMTGYWSTQGCRLLTTNKTHTTCSCNHL
chain 2: TNFAVLMAHVEVKHSDAVHDL
modifications: biotin on the Avi-tag (BirA) where used biotinylated
B2: synthetic antibody fragment (sAB) LK30 (Fab, V domains shown)
VH: EVQLVESGGGLVQPGGSLRLSCAASGFNIYYSSIHWVRQAPGKGLEWVAYISPYSGSTSYADSVKGRFTISADTSKNTAYLQMNSLRAEDTAVYYCARYKYGQGHMGAFDYWGQGTLVTVSS
VL: DIQMTQSPSSLSASVGDRVTITCRASQSVSSAVAWYQQKPGKAPKLLIYSASSLYSGVPSRFSGSRSGTDFTLTISSLQPEDFATYYCQQSNTELVTFGQGTKVEIK
B3: ADGRL3 Lec/Olf fragment (domain or fragment)
chain: PIPMAVVRRELSCESYPIELRCPGTDVIMIESANYGRTDDKICDSDPAQMENIRCYLPDAYKIMSQRCNNRTQCAVVAGPDVFPDPCPGTYKYLEVQYECVPYKVEQKVFLCPGLLKGVYQSEHLFESDHQSGAWCKDPLQASDKIYYMPWTPYRTDTLTEYSSKDDFIAGRPTTTYKLPHRVDGTGFVVYDGALFFNKERTRNIVKFDLRTRIKSGEAIIANANYHDTSPYRWGGKSDIDLAVDENGLWVIYATEQNNGKIVISQLNPYTLRIEGTWDTAYDKRSASNAFMICGILYVVKSVYEDDDNEATGNKIDYIYNTDQSKDSLVDVPFPNSYQYIAAVDYNPRDNLLYVWNNYHVVKYSLDFGPLD

Experiments:
[1] = biological target: LK31; experiment: SPR
[2] = biological target: LK12; experiment: SPR
[3] = biological target: LK29; experiment: SPR
[4] = biological target: LK25; experiment: ELISA
[5] = biological target: B1; experiment: SPR
[6] = biological target: T1, Lec domain of ADGRL3; experiment: SPR
[7] = biological target: B3; experiment: SPR
[8] = biological target: B1; experiment: SPR
[9] = biological target: B3; experiment: SPR

Binder | Kd [1] [nM] | koff [1] [s⁻¹] | Kd [2] [nM] | koff [2] [s⁻¹] | Kd [3] [nM] | koff [3] [s⁻¹] | Kd [4] [nM] | koff [5] [s⁻¹] | koff [6] [s⁻¹] | koff [7] | Kd [8] [nM] | Kd [9]
B1 | 3.8 | 0.002 | 8.3 | 0.0032 | 4.1 | 0.0015 | 56.8 |  |  |  |  | 
B2 |  |  |  |  |  |  |  | 0.0058 | 0.0113 | 0.0066 s⁻¹ and 0.0049 s⁻¹ | 4.2 | 5.4 nM and 3.7 nM
B3 | 3.6 | 0.0029 | 12.5 | 0.0099 | 2.5 | 0.001 |  |  |  |  |  | 
